For 1 substance, stoichiometry N results are on record in paper PMC6832617.

Assay [1] deals with recombinant His-tagged NS1 protein of West Nile virus strain IS-98-ST1 (NS1^WNV) (West Nile virus, strain IS-98-ST1). As to the kind of experiment: negative-stain electron microscopy.
For assay [2] the target is unchanged. As to the kind of experiment: SDS-PAGE without heat denaturation + Western blot. (Immunoblotting shows a protein as a band on a membrane.)

As a reminder, the stoichiometry N is the number of molecules, sites or subunits per partner or assembly. For the substance “recombinant His-tagged NS1 protein of West Nile virus strain IS-98-ST1 (NS1^WNV) (natural protein)”, the stoichiometry N in assay [1] turned out to be 6; in assay [2] it was 2.
